In the nanobody polyreactivity screen of Harvey et al. (2022):

Experiment: yeast display, Sf9 membrane polyspecificity reagent, FACS + sequencing; frameworks hold sequencing errors
Procedure, shortened: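 A nanobody's polyreactivity label depends on the gate it was sorted from. Yeast display cells were stained with 10% biotinylated, detergent-solubilized Sf9 membrane reagent for 1 hour at 4 °C, enriched on streptavidin microbeads and sorted by FACS. The low and high (top ~1%) gates were set on anti-HA fluorescence for expression and streptavidin fluorescence for reagent binding.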

Sequence	polyreactivity (PSR sort gate)
QVQLVESGGGLVQAGGSLRLSCAASGFIFIVYAMGWYRQAPGKERELVASITYSGGGTYYADSVKGRFTISRDNAKNTVYLQKNSLKPEDTAVYYCNADVSWSYSVYREYGMDYWGQGTQVTVSS	low polyreactivity
QVQLVESGGGLVQAGGSLRLSCAASGITFATNAMGWYRQAPGKERELVAGITSGGSTYYADSVKGRFTISRDNAKNTVYLQMNSLKPEDTAVYYCAKRYHYWYGTGYDYWGQGTQVTVSS	low polyreactivity
QVQLVESRGGLVQAGGSLRLSCAASGRTFRSYVMGWYRQAPGKERELVAAITTSGGSTYYADSVKGRFTISRDTAKNTVYLQMNSLKPEETAVYYCAAEYYTYTGHYDSWYGDDYWGQGTQVTVSS	high polyreactivity
QVQLVELGGGLVQAGGSLRLSCAASGSIFSRNTMGWYRQAPGKERELVAGISSSGSRTYYADSVKGRFTISRDNAKNTVYLQMNSLKPEDTAVYYCNARYYWKQAADYNYWGQGTQVTVSS	low polyreactivity
QVQLVESGGGLVQAGGSLRLSCAASGSIFSSNVMGWYRQAPWKERELVAAITVRGSRTYYADSVKGRFTISRDNAKNTVYLQLNSLKPEDTAVYYCNAVARVLGSDRRLQYYYWGQGTQVTVSS	high polyreactivity
QVQLVESGGGLVQAGGSLRLSCAATGSTFGYYAMGWYRQSPGKERELVAAISRSGTSTYYADSVKGRFTISRDNAKNTVYLQMISLKPEDTAVYYCIRYGFNSQDYWGQGTQVTVSS	high polyreactivity
QVQLVESGGGLVQAGGSLRLSCAASGFTFTYYTMGWYRQAPGKARELVAAISWSGGSTYYADSVKGRLTISRDNANNPVYLQMNSLKPEDTEVYYCNKVGIGYNTKRDYWGQGTQVTVSS	high polyreactivity
QVQLVESGGGLVQAGGSLRLSCAASGRIFPAYAMGWYRQAPGKERELVASIRRGGITYADSVKGRFTISRDNAKNTVYLLMNSLKPEDTAVYYCNAYVNRATAGRYYSWGQGTQVTVSS	low polyreactivity
QVQLVESGGGLVQAGGSLRLSCAASGSTFSRYAMGWYRQAPGKERELVAAISRSGGSTYYADSVKGRFTISRDNAKNTVYLQMNSLKPEDTAVYYCAKVTTYVSAWQGNGYWGQGTQVTVSS	high polyreactivity
QVQLVESGGGLVQAGGSLRLSCAASGSTFPYNAMGSYRQAPGKERELVAAISSSGGRTYYADSVKGRFTISRDTAKNTVYLQMNSLKPEDTAVYYCNAAYYYTYGYWGQGTQVTVSS	high polyreactivity
QVQLVESGGGLVQAGGSLRLSCAASRIIFDDNAMGWYRQAPGKEMELVAAISRRGGSTYYADSVKGRFTISRDNAKNTVYLQMNSLKPEDTAVYYCAATTRTSSLYNYWGQGTQVTVSS	high polyreactivity
QVQLVESGGVLVQAGGSLRLSSAASGGTFWYYAMGMYRQEPGKERELVASISRGGSTNYADSVKGRFTISRDKAKHTVDLQMNRLKPEDTAVYYCIAGLRVGPRRYVDYEYDYWGQGSQVTVSS	low polyreactivity
QVQLVESGGGIVQAGGSLRLSCAASGSIFTGYAMGWYRQAPGKERQLVAAISWRGGGTYYADSVKGRFTISRDNAKNTVYLQMNSLKPEDTAVYYCAAVTKFGQYAPGSKGYGYWGQGTQVTVSS	low polyreactivity
QVQLHESGGGLVQAGGSLRLSCAASGTISYAGPMGWYRQAPGKEREFVAGIGVGSNTNYADSVKGRYTIIRDNAKNTVYLQMTSLKPEETAVYYCAVGGYAPLGPPYWGQGTQVTVSS	low polyreactivity
QVQLVESGVGLVQAGGSLRLSCAASGRIVWGYAMGWYRQAPGKERELVATITRGGSTNYADSVKGRFTISRDNAKHTVYLQMNSLKPEDTAVYYCARDWGKSEYDYWGQGTQVTVSS	high polyreactivity
QVQLVESGGGLVQAGGSLRLSCAASGITFFRYTMGWYRQAPGKERELVAAINIRGTRTYYADSVKGRFTISRDNAKNTVYLQMNSLKPEDTAVYYCAAGYAYRYSGLSYDVDYWGQGTQVTVSS	high polyreactivity

Sequence	polyreactivity (PSR sort gate)
QVQLVESGGGLVQAGGSLRLSCAASGFTFSFYAMGWYRQAPGKERELVASISDSDGITFYADSVKGSFTISRDNAKNTVYLPMKSLKPEDTAVYYCAADVAIAIPFSYDYWGQGTQVTVSS	low polyreactivity
QVQLVESGGGLVQAGGSLRLSCAASGSIFVWYVMGWYRQAPGKERELVAVISRSGGSTYYADSVKGRFTISRDNAKNTVYLQMNSLKPEDTAVYYCAADSRSYYRDVDYWGQGTQVTVSS	low polyreactivity
QVQLVESGGGLVQAGGSLRLSCAASGSIFSENTRGWYRQAPGKERELVAAISWSGGSTNYADSVKGRFTISRDNAKNTVYLQMNSLKPEDTAVYYCFYWGQCTQVTVSS	low polyreactivity
QVQLVVSGGGLVQAGGSLRLSCAASGSIFPYYTMGWYRQAPGKEWELVAAISGSGTSTYYADSVKGRFTISRDNAKNTVYLQMNSLKPEDTAVYYCAKRFRYGYVNYYYWGQGTQVTVSS	low polyreactivity
QVQRVESGGGLVQAGGSLRLSCAASGFIFIRNAMGWYRQAPGKERELVAAISSGGRTYYADSVKGRFTISRDNAKNTVYLQMNSLQPEDTAVYYCATRPHRPRGHSVGQYDYWGQGTQVTVSS	high polyreactivity
QVQLVESGACLVQAGGSLRLSCAASGSIFGFYAMGWYRQAPGQERELVAGISYGDSSTYYADSVKGRFTISRDNAKNTVYLQMNSLKPEDTAVYYCAAGHRQKYNWGRYDYWGQGTQVTVSS	low polyreactivity
QVQLEESGGGLVQAGGSLRLSCAASGITFYYYAMGWYRRAPGKERELVAANSSGGSKSYADSVKGRFTISRDNAKNNVYLQMNSLKPDDSAVYYCAADLPYLWYPFYYWGQGTQVTVSS	high polyreactivity
QVQLVESGGGLVQAGGSLRLSCAASGFTFTAYAMGWYRQAPGKERELVAAINWSGSRTYYADSVKGRFTISRDNAKNTVYLQMNSLKPEDTAVYYCNTATSKSSYRHYDYWGQGTQVTVSS	high polyreactivity
QVQLVESGGGLVQAGGSLRLSCAASGSIFLQNAMGWYRQAPGKERELVAAITNGGSTNYADSVKGRFTISRDNAKHTVYLQLNSLKPEDTAVYYCAAYPLYTGSYDRGGYWGQGTQVTVSS	low polyreactivity
QVQLVESGGGLVQAGGSLRLSCAASGRTSVKYAMGWSRQAPGKERELVATIRYRTASTYYADSVKGRFTISRDNAKNTVYLQMNSPKPEDTAVYYCAAATSYASPWWYLYYYWGQGSQVTVSS	high polyreactivity
QVQLVESGGGLVQAGGSLRLSCAASGRIIPYYAMGWYRQAPGKERELVASTNYADSVKGRFTISRDNAKNTVYLQMNSLKPEDTAVYYCAADGYRYSVYLIRNPMDYWGQGTQVTVSS	low polyreactivity
QVQLVESGGGLVQAGGSLRISCAASGRIFSYNDMGWYRPAPGKERELVAAITGGGSTNYADSVKGRFTISRDNAKNTVYLQMNSLKPEDTAVYYCAARSWSDKYWGQGTQVTVSS	high polyreactivity
QVQLVESGGGLVQAGGSLRLSCAASGSIFKLNAMGWYRQAPGKERELVAVINKSGGRTYYADSVKGRFTISRDNAKNTVYFQMNSLKPEDTAVYYCNAVSKLAVNLDYWGQGTQVTVSS	high polyreactivity
QVQLVESGGGLVQAGGSLRLSCAASGSIRYYVMGWYRQAPGKERELVAGINWSGGSTYYADSVKGRFTISRDNAKNTVYLQMNSLKPEDTAVYYCAARFVGVRDGYYYWGQGTQVTVSS	high polyreactivity
QVQIVQSGGGLVQAGGSLRLSCAASGSTITYNAMGWYRQAPGKERELVAAITVSDGSTYYADSVKGRFTISRDNAKNTVYLQMNSLKPEDTAVYYCNAYAVYLRYLWYDFWGQGTQVTVSS	low polyreactivity
QVQLVESGGGIVQAGGSLRLSCAASGFTFARNAMGWSRQAPGNEWELVAAISYRGGSTYYADSVKGRFTISRDNAKNTLYLQMNSLKPQDTAVYYCAAEVVWYVYRRYYYWGQGTQVTVSS	high polyreactivity
